Source: patent US9790262B2, “Compositions comprising glucagon analogs and methods of making and using the same” (LONGEVITY BIOTECH, INC., priority 2011, dated 2017)
Non-standard residues stand in square brackets, D forms with d. No end group written: not given here. APC = 3-aminopyrrolidine-4-carboxylic acid (cyclic beta amino acid); ACPC = 2-aminocyclopentanecarboxylic acid (cyclic beta amino acid); Aib = CC(C)(N)C(=O)O

B1: 2004 (peptide)
peptide: YXEGTFTSDYSXYLXKQAXXEXVNWXLAX
modifications: B = alpha-aminoisobutyric acid (Aib) at positions 2 and 20; alpha-to-beta3 amino acid replacement(s) at the bold and underlined position(s) of the printed sequence, which this text does not show
B2: 2010 (peptide)
peptide: Y[Aib]EGTFTSDYSIYLDK[ACPC]AA[Aib][ACPC]FV[APC]WLL[ACPC]G
B3: 2008 (peptide)
peptide: Y[Aib]EGTFTSDYSIYLD[APC]QA[ACPC][Aib]EF[ACPC]NW[ACPC]LAG
B4: 2005 (peptide)
peptide: YXEGTFTSDYSIYXDKXAAXXFVXWLLXG
modifications: B = alpha-aminoisobutyric acid (Aib) at positions 2 and 20; alpha-to-beta3 amino acid replacement(s) at the bold and underlined position(s) of the printed sequence, which this text does not show
B5: 2001 (peptide)
peptide: YXEGTFTSDYSXYLDXQAXXEFXNWXLAG
modifications: B = alpha-aminoisobutyric acid (Aib) at positions 2 and 20; alpha-to-beta3 amino acid replacement(s) at the bold and underlined position(s) of the printed sequence, which this text does not show

Assays:
GIP receptor = biological target: T1, GIP receptor (UniProt P48546 22-466, limits assumed); test: cell-based or functional assay
T1 sequence (looked up): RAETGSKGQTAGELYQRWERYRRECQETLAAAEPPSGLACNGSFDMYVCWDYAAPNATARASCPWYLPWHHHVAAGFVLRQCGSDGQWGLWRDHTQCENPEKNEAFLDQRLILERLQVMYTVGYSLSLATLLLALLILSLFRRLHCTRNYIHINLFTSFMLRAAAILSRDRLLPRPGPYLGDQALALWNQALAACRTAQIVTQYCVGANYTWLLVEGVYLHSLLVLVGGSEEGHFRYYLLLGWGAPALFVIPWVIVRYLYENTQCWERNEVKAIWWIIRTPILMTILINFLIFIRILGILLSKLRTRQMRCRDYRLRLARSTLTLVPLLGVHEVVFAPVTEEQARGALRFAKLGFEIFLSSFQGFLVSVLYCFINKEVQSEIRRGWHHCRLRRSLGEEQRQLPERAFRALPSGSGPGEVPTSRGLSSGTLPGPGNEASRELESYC

GIP receptor (GIPR) = biological target: T2, GIP receptor (GIPR) (Homo sapiens, UniProt P48546); test: cAMP Hunter agonist assay (DiscoveRx HitHunter cAMP XS+), GIPR cells; type: cell-based; conditions: read-out: Max Response
T2 sequence (P48546 22-466): T1 sequence (looked up)
Protocol: Once it was established that the cells were healthy and growing normally, cells were passaged from flasks using cell dissociation reagent buffer and seeded into white walled clear bottom 384-well microplates for compound profiling. For profiling, cells were seeded at a density of 10,000 cells per well in a total volume of 20 μL and were allowed to adhere and recover overnight prior to compound addition. cAMP modulation was determined using the DiscoveRx HitHunter cAMP XS+ assay.
For profiling compound in agonist mode, the cells were incubated in the presence of compound at 37° C. for 30 minutes. […] After appropriate compound incubation, assay signal was generated through incubation with DiscoverX lysis cocktail according to the manufacturers standard protocol. Dose curves were plotted using GraphPad Prism or Activity Base. Percentage activity is calculated using the following formula: % Activity=100%×(mean RLU of test sample−mean RLU of vehicle control)/(mean RLU of MAX control−mean RLU of vehicle control).

[1] = Stability in human liver microsomes; conditions: for % of mass remaining in solution: 0.5 mg/mL human liver microsomes, 1 μM, 1 mM NADPH, 37° C.
Protocol: Human liver microsomes were prepared by Absorption Systems. A reaction mixture, minus NADPH, was prepared as described below. […] In parallel, a […]. The test compound was added into the reaction mixture (0.5 mg/mL human liver microsomes; 100 mM potassium phosphate; 5 mM Magnesium chloride) at a final concentration of 1 μM. An aliquot of the reaction mixture (without cofactor) was incubated in a shaking water bath at 37° C. for 3 minutes. […] The samples were then mixed and centrifuged to precipitate microsomal proteins. […] A thermo BDS Hypersil C18 column (30×2.0 mm; 3 μm) was used for chromatography at 300 μL/minute with an aqueous reservoir of 90% water and 10% buffer and an organic reservoir of 90% acetonitrile with 10% buffer (each 25 mM ammonium formate buffer at pH of 3.5). Test compound samples were analyzed by orbitrap. The peak area response ratio to internal standard (PARR) of the compounds at 10, 20, 30, and 60 minutes was compared to the PARR at time 0 to determine the percent of test compound remaining at each timepoint. After the final time point, fluorimetry is used to confirm the addition of NADPH to the reaction mixture. Half-life was normalized of control using internal acceptance criteria.
The mass spectrometry measurements of compound were taken at 0, 10, 20, 30, and 60 minutes after incubation of the compound with human liver microsomes at […] in solution at 37° C.
Intrinsic clearance (CLint) was calculated based upon CLint=k/P, where k is the elimination rate constant and P is the protein concentration in the incubation.

[2] = Stability in human plasma; type: in vitro ADME
Protocol: Studies of the 2010 peptide were carried out in human plasma. All plasma was obtained from Bioreclamation and collected on sodium heparin. DMSO stocks were first prepared for the test compounds. Aliquots of the DMSO solutions were dosed into 1 mL of plasma, which had been pre-warmed to 37° C., at a final test compound concentration of 1 μM. The vials were kept in a benchtop Thermomixer® for the duration of the experiment. Aliquots (100 μL) were taken at each timepoint (0, 15, 30, 60, and 120 minutes) and added to 96-well plates which had been pre-filled with 300 μL of acetonitrile. Samples were stored at 4° C. until the end of the experiment. After the final timepoint was sampled, the plate was mixed and then centrifuged at 3,000 rpm for 10 minutes. Aliquots of the supernatant were removed, diluted 1:1 into distilled water, and analyzed by LC-MS/MS.
Below is a table of data describing the stability of compounds exposed to human plasma with aliquot of compound dissolved in DMSO solution at 37° C. The pH of the plasma solution was adjusted to 7.4 and single replicants of aliquot were taken at 0, 15, 30, 60 and 120 minutes. LC-MS/MS was used to determine the percent mass of compound remaining in solution (% remaining).

GLP-1 receptor = GLP-1 receptor (UniProt P43220 24-463, limits assumed); test: cell-based or functional assay

Molecule | cAMP agonist: Max Response (GIP receptor) | cAMP agonist: Curve Bottom (GIP receptor) | cAMP agonist: Curve Top (GIP receptor) | cAMP agonist: Max Response (GLP-1 receptor) | cAMP agonist: Curve Bottom (GLP-1 receptor) | cAMP agonist: Curve Top (GLP-1 receptor) | further results
wild-type GLP-1 (from UniProt P01275 92-128) (ligand) | 2.66% |  |  |  |  |  | 
CC[C@H](C)[C@H](NC(=O)[C@H](Cc1ccccc1)NC(=O)[C@H](CCC(=O)O)NC(=O)[C@H](CCCCN)NC(=O)[C@H](C)NC(=O)[C@H](C)NC(=O)[C@H](CCC(N)=O)NC(=O)CNC(=O)[C@H](CCC(=O)O)NC(=O)[C@H](CC(C)C)NC(=O)[C@H](Cc1ccc(O)cc1)NC(=O)[C@H](CO)NC(=O)[C@H](CO)NC(=O)[C@@H](NC(=O)[C@H](CC(=O)O)NC(=O)[C@H](CO)NC(=O)[C@@H](NC(=O)[C@H](Cc1ccccc1)NC(=O)[C@@H](NC(=O)CNC(=O)[C@H](CCC(=O)O)NC(=O)[C@H](C)NC(=O)[C@@H](N)Cc1c[nH]cn1)[C@@H](C)O)[C@@H](C)O)C(C)C)C(=O)N[C@@H](C)C(=O)N[C@@H](Cc1c[nH]c2ccccc12)C(=O)N[C@@H](CC(C)C)C(=O)N[C@H](C(=O)N[C@@H](CCCCN)C(=O)NCC(=O)N[C@@H](CCCNC(=N)N)C(N)=O)C(C)C [GLP1] |  |  |  |  |  |  | Emax (GIP receptor (GIPR)): 2.66%
C[C@]12CC[C@H]3[C@@H](CCC4=CC(=O)CC[C@@]43C)[C@@H]1CC[C@@H]2O [Testosterone, testosterone] |  |  |  |  |  |  | % of mass remaining in solution ([1]; 0 mins.): 100%; % of mass remaining in solution ([1]; 60 mins.): 4.8%; remaining at 10 min, 1 μM ([1]; human, microsomes): 53%; remaining at 0.5 h, 1 μM ([1]; human, microsomes): 13%
CC[C@H](C)[C@H](NC(=O)[C@H](CO)NC(=O)[C@H](Cc1ccc(O)cc1)NC(=O)[C@H](CC(=O)O)NC(=O)[C@H](CO)NC(=O)[C@@H](NC(=O)[C@H](Cc1ccccc1)NC(=O)[C@@H](NC(=O)CNC(=O)[C@H](CCC(=O)O)NC(=O)C(C)(C)NC(=O)[C@@H](N)Cc1ccc(O)cc1)[C@@H](C)O)[C@@H](C)O)C(=O)N[C@@H](Cc1ccc(O)cc1)C(=O)N[C@@H](CC(C)C)C(=O)N[C@@H](CC(=O)O)C(=O)N[C@@H](CCCCN)C(=O)N[C@@H](CCC(N)=O)C(=O)N[C@@H](C)C(=O)N[C@@H](C)C(=O)NC(C)(C)C(=O)N[C@@H](CCC(=O)O)C(=O)N[C@@H](Cc1ccccc1)C(=O)N[C@H](C(=O)N[C@@H](CC(N)=O)C(=O)N[C@@H](Cc1c[nH]c2ccccc12)C(=O)N[C@@H](CC(C)C)C(=O)N[C@@H](CC(C)C)C(=O)N[C@@H](C)C(=O)NCC(N)=O)C(C)C [compound 2000, YBEGT FTSDY SIYLD KQAAB EFVNW LLAG] |  |  |  |  |  |  | % of mass remaining in solution ([2]; 0 mins., 1 μM, 37° C., pH 7.4): 100%; remaining at 0.25 h, 1 μM ([2]; plasma (sodium heparin), 15 mins., 1 μM, 37° C., pH 7.4, read-out: % of mass remaining in solution): 101%; remaining at 0.5 h, 1 μM ([2]; plasma (sodium heparin), 30 mins., 1 μM, 37° C., pH 7.4, read-out: % of mass remaining in solution): 99%; remaining at 1 h, 1 μM ([2]; plasma (sodium heparin), 60 mins., 1 μM, 37° C., pH 7.4, read-out: % of mass remaining in solution): 95%; remaining at 2 h, 1 μM ([2]; plasma (sodium heparin), 120 mins., 1 μM, 37° C., pH 7.4, read-out: % of mass remaining in solution): 98%; half-life ([2]; read-out: serum-half lives): > 120 min; % of mass remaining in solution ([1]; 0 mins.): 100%; half-life ([1]; human, microsomes): 58 min; microsomal CLint ([1]; human, microsomes): 24 µL/min/mg; remaining at 10 min, 1 μM ([1]; human, microsomes): 95%; remaining at 20 min, 1 μM ([1]; human, microsomes): 78%; remaining at 0.5 h, 1 μM ([1]; human, microsomes): 72%; remaining at 1 h, 1 μM ([1]; human, microsomes): 50%
B1 | 99.1% | -0.8% | 99.1% | 2.68% |  |  | cAMP agonist EC50 (RC50 (uM)) (GLP-1 receptor): > 1 µM
B2 | 96.9% | -0.3% | 85.5% | 82.1% | 0.4% | 82.4% | 
B3 | 82.2% | -0.6% | 82.8% | 84.5% | 0.9% | 84.4% | 
B4 | 99.2% | -2.6% | 96.3% | 95.7% | 1.3% | 91.1% | 
B5 | 16.5% |  |  | 36.7% |  |  | cAMP agonist EC50 (RC50 (uM)) (GIP receptor): > 1 µM; cAMP agonist EC50 (RC50 (uM)) (GLP-1 receptor): > 1 µM
